For one substance, percent of soluble full-length mutant htt associated with 3xFlag20Q-htt results are on record in publication PMC3499431.

This test concerns the target 3xFlag20Q-htt (full-length humanized normal huntingtin, chimeric mouse/human exon 1 with a 20Q stretch and the human PRR, with a 3xFlag N-terminal epitope tag) (mouse | human). The test can be described thus: co-IP; 500 ug whole brain cytoplasmic extract (mice 13, 16 or 27 months old) with 5-6 ug FLAG M2 or 1C2 antibody overnight at 4°C, captured on Protein G-agarose beads for 3 hr; same extraction buffer; eluted by boiling in SDS sample buffer; bound and non-bound fractions blotted with 1C2 and MAB2166; control without antibody.

Consider “140Q-htt (soluble full-length mutant huntingtin of the CAG140 knock-in allele, chimeric mouse/human exon 1 with a 140Q stretch and the human PRR) (natural protein)”, for which the percent of soluble full-length mutant htt associated with 3xFlag20Q-htt was less than 2.5%.
